Here are results for 1 substance from article PMC117134.

For the assay, the target named is HIV-1 reverse transcriptase p66 subunit, wild type (HIV-1). The assay is described as follows: glycerol gradient ultracentrifugation.

Regarding “HIV-1 reverse transcriptase p66 subunit, wild type (enzyme)”, the stoichiometry N is 2.
